Data from paper PMC11162469, “Discovery of RXFP2 genetic association in resistant hypertensive men and RXFP2 antagonists for the treatment of resistant hypertension” (Scientific Reports, 2024).

Assays:
[1] = target: rat relaxin family peptide receptor 2 (RXFP2) (rat) (UniProt Q5ECL0)
[2] = target: human relaxin family peptide receptor 2 (RXFP2) (human) (UniProt Q8WXD0)
[3] = target: rat relaxin family peptide receptor 2 (RXFP2) (rat) (UniProt Q5ECL0); remark: listed apart in the source

Sequence of rat relaxin family peptide receptor 2 (RXFP2) (rat) (Q5ECL0 entry or part of it): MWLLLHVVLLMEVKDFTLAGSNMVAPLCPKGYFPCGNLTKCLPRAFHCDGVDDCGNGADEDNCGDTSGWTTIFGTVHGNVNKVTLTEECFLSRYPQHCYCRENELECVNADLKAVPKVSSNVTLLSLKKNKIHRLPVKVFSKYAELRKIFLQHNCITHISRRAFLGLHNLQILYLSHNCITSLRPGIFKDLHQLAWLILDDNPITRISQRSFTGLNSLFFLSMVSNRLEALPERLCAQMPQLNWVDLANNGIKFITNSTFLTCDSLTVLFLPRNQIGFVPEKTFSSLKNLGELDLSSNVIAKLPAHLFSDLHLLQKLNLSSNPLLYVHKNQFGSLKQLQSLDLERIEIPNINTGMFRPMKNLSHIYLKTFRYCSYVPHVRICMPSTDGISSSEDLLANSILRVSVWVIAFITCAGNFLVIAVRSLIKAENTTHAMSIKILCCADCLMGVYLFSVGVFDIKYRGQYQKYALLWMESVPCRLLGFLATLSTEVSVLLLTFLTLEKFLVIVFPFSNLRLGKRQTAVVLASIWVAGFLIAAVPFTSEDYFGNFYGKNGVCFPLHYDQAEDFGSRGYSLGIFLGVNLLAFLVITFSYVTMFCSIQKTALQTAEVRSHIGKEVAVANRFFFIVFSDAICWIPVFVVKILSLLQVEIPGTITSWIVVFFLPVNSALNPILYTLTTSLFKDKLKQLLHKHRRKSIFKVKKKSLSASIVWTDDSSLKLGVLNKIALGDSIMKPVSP
Sequence of human relaxin family peptide receptor 2 (RXFP2) (human) (Q8WXD0 whole entry): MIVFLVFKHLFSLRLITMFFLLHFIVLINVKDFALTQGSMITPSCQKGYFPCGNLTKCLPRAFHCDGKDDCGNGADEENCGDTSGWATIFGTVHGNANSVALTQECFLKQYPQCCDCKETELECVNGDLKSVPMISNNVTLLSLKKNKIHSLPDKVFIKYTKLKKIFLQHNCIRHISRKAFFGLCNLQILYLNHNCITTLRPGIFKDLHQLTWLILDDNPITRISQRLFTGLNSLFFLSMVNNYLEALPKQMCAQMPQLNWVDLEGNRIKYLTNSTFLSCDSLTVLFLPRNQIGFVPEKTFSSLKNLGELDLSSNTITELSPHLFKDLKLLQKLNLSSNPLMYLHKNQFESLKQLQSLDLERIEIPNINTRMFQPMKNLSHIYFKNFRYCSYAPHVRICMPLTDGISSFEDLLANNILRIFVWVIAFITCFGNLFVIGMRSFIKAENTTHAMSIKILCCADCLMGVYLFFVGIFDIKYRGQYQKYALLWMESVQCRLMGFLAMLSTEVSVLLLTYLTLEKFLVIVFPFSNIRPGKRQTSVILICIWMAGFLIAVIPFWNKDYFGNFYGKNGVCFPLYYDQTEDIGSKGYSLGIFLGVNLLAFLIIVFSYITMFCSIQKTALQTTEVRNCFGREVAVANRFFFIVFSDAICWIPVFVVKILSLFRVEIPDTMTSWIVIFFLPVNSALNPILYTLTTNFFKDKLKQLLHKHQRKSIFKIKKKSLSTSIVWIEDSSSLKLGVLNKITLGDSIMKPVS

Binder	% Max Response, INSL3 (EC80)-stimulated cAMP in HEK293 stably expressing rat RXFP2 [1] [%]	IC50, INSL3 (EC80)-stimulated cAMP in HEK293 stably expressing rat RXFP2 [1] [nM]	IC50, INSL3-stimulated CYP11B1 mRNA in H295R stably expressing rat RXFP2 [1] [nM]	IC50, INSL3-stimulated CYP11B2 mRNA in H295R stably expressing rat RXFP2 [1] [nM]	IC50, INSL3 (EC80)-stimulated cAMP in HEK293 stably expressing human RXFP2 [2] [nM]	IC50, INSL3-induced cortisol release (ELISA) from H295R stably expressing rat RXFP2 [3] [nM]	IC50, INSL3-induced aldosterone release (ELISA) from H295R stably expressing rat RXFP2 [3] [nM]	% Max Response, INSL3 (EC80)-stimulated cAMP in HEK293 stably expressing human RXFP2 [2] [%]
RXFP2 mAb 4A5 (antibody, V domains shown) VH: DVQLVESGGGLVQPGGSRKLSCAASGFTFSTFGMHWVRQAPEKGLEWVAYISSGSSTIYYADTVKGRFTISRDNPKNTLFLQMTSLRSDDTAMYYCSRSYYGSAHYFDYWGQGTTLTVSS VL: DIQMTQSPASLSVSVGETVTITCRASENIYSNLAWYQQKQGKSPQLLVYVATNLADGVPSRFSGSGSGTQYSLRINNLQSEDFGNYYCQHFWGTPPTFGGGTKLEIK	91	23.2	2.85	0.31				
RXFP2 mAb 1F2 (antibody, V domains shown) VH: QVQLKQSGPGLVQPSQSLSITCTVSGFSLTAYGVNWVRQSPGKGLEWLGVIWSGGNTDYNAPFISRLSITKDNSKSQVFFKMNSLEADDTAIYYCARAKGYYAMDYWGQGTSVTVSS VL: DIQMTQSPASLSVSVGESVTITCRATENIYSNLVWYQQKQGQSPQLLVYAVTSLADGVPSRFSGSGSGTQYSLKINSLQSEDFGTYYCQHFWGTPYTFGGGTKLEIK	76.1	19.1	0.32	0.1	405	0.21		
RXFP2 mAb 4H5 (antibody, V domains shown) VH: QVQLKQSGPGLVQPSQSLSITCTVSGFSLTNYGVHWVRQSPGKGLEWLGVIWRDGNTDYNAAFMSRLSITKDNSKSQVFFEMNSLQVDDTAIYYCCRGDGYYAMGYWGQGTSVTVSS VL: DIQMTQSPASLSVSVGETVTITCRASENIYSNLAWYQQRQGRSPQLLVYAATNLADGVPSRFSGSGSGTQYSLKINSLQSEDFGNYYCQHFWGSPRTFGGGTKLEIK	89.2	14.2	0.21	0.15				
RXFP2 mAb 3H1 (antibody, V domains shown) VH: QVQLKETGPGLVAPSQSLSITCTVSGFSLTNYGVNWVRQPPGKGLEWLVVIWSDGSTNYNSALKSRLSISKDNSKSQVFLKMNSLQTDDTAMYYCARQQGYYAMDYWGQGTSVIVSS VL: DIQMTQSPASLSVSVGETVTITCRASENIYSNLAWYQQKQGKSPQLLVYAVTNLADGVPSRFSGSGSGTQYSLKINSLQSEDFGSYYCQHFWGPPYTFGGGTKLEIK	71.6	15.8	0.33	0.16				
RXFP2 mAb 4H2 (antibody, V domains shown) VH: QVQLRQSGPSLVQPSQSLSITCTVSGFSLTNYGVHWVRQSPGKGLEWLGVIWRGGNTDHNAAFMSRLSITKDNSESQVFFKMNSLQVDDTAIYYCAKAEGYYALDYWGQGTSVTVYS VL: DIQMTQSPASLSVSVGETVTITCRASENIYSNLAWYQQKQGKSPQLLVYAVTNLADGVPSRFSGSGSGTQYSLKINSLQSEDFGSYYCQHFWGTPWTFGGGTKLEIK	85.7	18.9	0.26	0.13				
RXFP2 mAb 2D4 (antibody, V domains shown) VH: QVQLKESGPGLVAPSQSLSITCTVSGFSLTTYGISWVRQPPGKGLEWLGVIWTGGGTNYNSALKSRLSISKDNSKSQVFLKMNSLQTDDTARYYCARTEGYYVMDYWGQGTSVTVSS VL: DIQMTQSPASLSVSVGETVTITCRASENIYSNLVWYQQKQGKSPQLLVYAATNLADGVPSRFSGSGSGTQYSLKINNLQSEDFGTYYCQHFWGPPWTFGGGTKLEIK	86.8	21	0.14	0.11	> 1000	0.17	0.05	
RXFP2 mAb 3G4 (antibody, V domains shown) VH: QVQLKESGPGLVAPSQSLSITCTVSGFSLTSYGVSWVRQPPGKGLEWLGVIWGDGSTNYHSALISRLSISKDNSKSQVFLKLNSLQTDDTATYYCAKSLGYYAMDYWGQGTSVTVSS VL: DIQMTQSPASLSVSVGETVTITCRASENIYSNLVWYQQKQGKSPQLLVYAATNLAEGVPSRFSGSGSGTQYSLKINSLQSEDFGSYYCQHFWGPPWTFGGGTKLEIK	83.3	16.1	0.33	0.2				
RXFP2 mAb 4B8 (antibody, V domains shown) VH: QVQLKQSGPGLVQPSQSLSITCTVSGFSLSRYGVHWVRQSPGKGLEWLGVIWSGGSTEYNAVFKSRLSISKDNSKSQVFFKMNSLQANDTAIYYCVRADGYYAMEYWGQGTSVTVSS VL: DIQMTQSPASLSVSVGETVTITCRASENIYSNLAWYQQKQGKSPQLLVYAVTNLADGVPSRFSGSGSGTQYSLKINSLQSEDFGNYYCQHFWGTPYTFGGGTKLEIK	86.6	21.4	0.23	0.17	116			
RXFP2 mAb 3F1 (antibody, V domains shown) VH: QVQLKESGPGLVAPSQSLSITCTVSGFSLTDYGVSWIRQPPGKGLEWLGVIWGGGSTDYNPALKSRLSISKDNSKSQVFLKMNSLQADDTAMYYCVKHEGYYAMDYWGQGTSVTVSS VL: DIQMTQSPASLSVSVGETVTITCRASENIYSNLAWYQQKQGKSPHLLVYAVTNLADGVPSRFSGSGSGTQYSLKINSLQSEDFGSYYCQHFWGTPYTFGGGTKLEIK	69.7	19.9	0.27	0.23	589			
RXFP2 mAb 4F6 (antibody, V domains shown) VH: EVQLQQSGPELVKPGASVKMSCKASGYTFTNYVLHWVKQKPGQGLEWIGYINPYNDGSKYNEKFKGRATLTSDKSSSTAYMELSSLTSEDSAVYYCARGGWLLDYFDYWGQGTTLTVSS VL: DVLMTQSPLSLPVSLGEQASISCRSSQSIVHSDGDTYLEWYLQKPGQSPNLLIYKVSNRFSGVPDRFSGSGSGTDFTLKISRVEAEDLGVYYCFQGSHVPPTFGGGTKLEIK	80.4	48.5			354			82.7
RXFP2 mAb 3F3 (antibody, V domains shown) VH: QVQLQQPGSVLVRPGASVKLSCKASGYIFTSYWMHWVKQRPGQGLEWIGEIYPNSGRTSYNEKFKGKATVTVDTSSSTAYVDLSSLTSEDSAVYYCASGGHWFAYWGQGTLVTVSA VL: DIQMTQSSSSFSVSLGDRVTITCKASEDIYNRLAWYQQKPGNAPRLLISGATSLEAGVPSRFSGSGSGKDYTLSITSLQTEDVSTYYCQQYWITPYTFGGGTKLEIK	78.5	37	3.85	0.51				
RXFP2 mAb 1G1 (antibody, V domains shown) VH: EVQLQQSGPELVKPGASVKMSCKASGYTFTDYNMHWVKQKPGQGLEWIGYINPYNDGTEYNEKFKGKATLTSDKSSSTAYMDLSSLTSEDSAVYYCARGLWFAMNYWGQGTSVTVSS VL: DIQMTQSSSSFSVSLGDRVTITCKASEDIYNRLAWYQQKPGNTPRLLISGATILETGVPSRFSGSGSGKDYTLSIISLQTEDVATYYCQQYWIIPPTFGGGTKLEIK	87.2	28	0.27	0.17				
RXFP2 mAb 4H1 (antibody, V domains shown) VH: QIQLVQSGPELKKPGETVKISCKTSGYTFTKYPMHWVKQAPGEGLKWMGWINTYSGLPTFADDFKGRFAFSLETSANTADLQINNLKNEDMATYFCAREGKKLSGYFDYWGQGTTLTVSS VL: DIKMTQSPSSMYASLGERVTITCKASQDINSYLTWFQQKPGQSPKTLIYRANRFVDGVPSRFSGSGSGQDYSLTITSLEYEDMGIYYCLQYDEFPYTFGGGTQLEIK	69.7	150			218			
